From patent publication US20110263014

Columns and labels:
[1] = biological target: T1, mouse Nanog (mNanog), Q80Z64
T1 chain: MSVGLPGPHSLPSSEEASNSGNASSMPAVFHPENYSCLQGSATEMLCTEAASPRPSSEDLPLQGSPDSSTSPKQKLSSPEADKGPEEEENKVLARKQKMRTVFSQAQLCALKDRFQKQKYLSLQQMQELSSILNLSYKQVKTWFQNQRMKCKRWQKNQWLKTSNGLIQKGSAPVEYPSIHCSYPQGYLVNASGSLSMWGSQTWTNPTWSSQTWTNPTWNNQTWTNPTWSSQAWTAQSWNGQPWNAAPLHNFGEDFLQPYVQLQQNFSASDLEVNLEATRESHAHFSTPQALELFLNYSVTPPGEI

[2] = biological target: in vitro-translated human Nanog (hNanog), Q9H9S0
Chain of in vitro-translated human Nanog (hNanog), Q9H9S0 (Q9H9S0 whole entry): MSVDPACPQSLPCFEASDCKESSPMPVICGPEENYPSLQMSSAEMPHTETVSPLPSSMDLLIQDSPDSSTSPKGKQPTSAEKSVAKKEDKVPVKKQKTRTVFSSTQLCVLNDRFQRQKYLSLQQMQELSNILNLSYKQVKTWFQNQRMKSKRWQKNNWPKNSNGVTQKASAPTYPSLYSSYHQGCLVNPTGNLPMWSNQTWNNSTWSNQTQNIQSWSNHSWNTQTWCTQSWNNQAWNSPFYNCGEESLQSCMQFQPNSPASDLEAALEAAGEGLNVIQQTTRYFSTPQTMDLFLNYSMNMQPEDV

B1: recombinant active caspase-3 (protein)
chain: SGISLDNSYKMDYPEMGLCIIINNKNFHKSTGMTSRSGTDVDAANLRETFRNLKYEVRNKNDLTREEIVELMRDVSKEDHSKRSSFVCVLLSHGEEGIIFGTNGPVDLKKITNFFRGDRCRSLTGKPKLFIIQACRGTELDCGIETDSGVDDDMACHKIPVEADFLYAYSTAPGYYSWRNSKDGSWFIQSLCAMLKQYADKLEFMHILTRVNRKVATEFESFSFDATFHAKKQIPCIVSMLTKELYFYH
With B1 the “in vitro caspase-3 cleavage assay” value (Sox2) was “remained uncleaved (data not shown)”, the “cleavage of immunoprecipitated mNanog by recombinant caspase” value [1] was “Only caspase-9 effectively cleaved mNanog into a 27 kDa fragment” and the “in vitro caspase-3 cleavage assay” value [1] was “very little or no cleavage of recombinant mNanog by caspase-3 was observed”. The “in vitro caspase-3 cleavage assay” value [2] was “Caspase-3 cleaved human (h) Nanog in vitro” and the “in vitro caspase-3 cleavage assay” value (Oct4) was “remained uncleaved (data not shown)”.
